Measurements reported in paper PMC10797690, “The SIRT3-ATAD3A axis regulates MAM dynamics and mitochondrial calcium homeostasis in cardiac hypertrophy” (International Journal of Biological Sciences, 2024).

Target: T1, NAD+-dependent deacetylase Sirtuin 3 (SIRT3), protein used for SPR
T1 chain: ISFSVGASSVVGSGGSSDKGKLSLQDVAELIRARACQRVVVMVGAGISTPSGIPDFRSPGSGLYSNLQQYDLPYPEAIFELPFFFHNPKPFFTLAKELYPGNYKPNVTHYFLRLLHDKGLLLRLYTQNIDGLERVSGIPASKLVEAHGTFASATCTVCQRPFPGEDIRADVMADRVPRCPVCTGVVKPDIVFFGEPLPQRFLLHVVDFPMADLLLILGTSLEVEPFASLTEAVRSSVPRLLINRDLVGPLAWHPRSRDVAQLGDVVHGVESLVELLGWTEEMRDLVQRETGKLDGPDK
Experiment: SPR; multicycle kinetics; which protein was immobilised is not told
Details: both partners purified

Kd: 50.9 nM
B1: ATPase family AAA-domain containing protein 3A (ATAD3A), protein used for SPR (natural protein)
chain: SWLFGINKGPKGEGAGPPPPLPPAQPGAEGGGDRGLGDRPAPKDKWSNFDPTGLERAAKAARELEHSRYAKDALNLAQMQEQTLQLEQQSKLKEYEAAVEQLKSEQIRAQAEERRKTLSEETRQHQARAQYQDKLARQRYEDQLKQQQLLNEENLRKQEESVQKQEAMRRATVEREMELRHKNEMLRVEAEARARAKAERENADIIREQIRLKAAEHRQTVLESIRTAGTLFGEGFRAFVTDWDKVTATVAGLTLLAVGVYSAKNATLVAGRFIEARLGKPSLVRETSRITVLEALRHPIQVSRRLLSRPQDALEGVVLSPSLEARVRDIAIATRNTKKNRSLYRNILMYGPPGTGKTLFAKKLALHSGMDYAIMTGGDVAPMGREGVTAMHKLFDWANTSRRGLLLFVDEADAFLRKRATEKISEDLRATLNAFLYRTGQHSNKFMLVLASNQPEQFDWAINDRINEMVHFDLPGQEERERLVRMYFDKYVLKPATEGKQRLKLAQFDYGRKCSEVARLTEGMSGREIAQLAVSWQATAYASEDGVLTEAMMDTRVQDAVQQHQQKMCWLKAEGPGRGDEPSPS
